US20110263827A1 (AbbVie / Abbott, published 2011)
Where “and” joins values, the source holds several entries; their conditions need not be identical. Identical values can stand only once.

T1: PLGF (UniProt P49763-2 21-149, limits assumed, biotinylated)
T1 construct: ELISA antigen; also called P1GF
T1 sequence (looked up): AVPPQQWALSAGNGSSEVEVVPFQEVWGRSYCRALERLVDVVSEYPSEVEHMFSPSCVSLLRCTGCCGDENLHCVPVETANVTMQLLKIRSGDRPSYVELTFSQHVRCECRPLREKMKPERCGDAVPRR

B1: AB063 (antibody, V domains shown)
VH: EVQLVESGGGLVQPGGSLRLSCAASGFTFSIYSMNWVRQAPGKGLEWVSYISSSSSTIYYADSVKGRFTISRDNAKNSLYLQMNSLRDEDTAVYYCARDRGDFDAFDIWGQGTMVTVSS
VL: DIQMTQSPSSLSASVGDRVTITCQASQDITNYLNWYQQKPGKAPKLLIYDASNLETGVPSRFSGSGSGTDFTFTISSLQPEDIATYNCQQCENFPITFGQGTRLEIKR
notes: parent antibody
B2: AB067 (antibody, V domains shown)
VH: EVQLLESGGGLVQPGGSLRLSCAASGFTFSHYVMAWVRQAPGKGLEWVSSISSSGGWTLYADSVKGRFTISRDNSKNTLYLQMNSLRAEDTAVYYCTRGLKMATIFDYWGQGTLVTVSS
VL: QSALTQPASVSGSPGQSITISCTGTSSDVGSYNVVSWYQQHPGKAPKLIIYEVSQRPSGVSNRFSGSKSGNTASLTISGLQTEDEADYYCCSYAGSSIFVIFGGGTKVTVLG
notes: parent antibody
B3: AB062 (antibody, V domains shown)
VH: QVQLQQWGAGLLKPSETLSLTCAVYGGSFSGYYWSWIRQPPGKGLEWIGEINHSGSTNYNPSLKSRVTISVETSKNQFSLKLSSVTAADTAVYYCARDKWTWYFDLWGRGTLVTVSS
VL: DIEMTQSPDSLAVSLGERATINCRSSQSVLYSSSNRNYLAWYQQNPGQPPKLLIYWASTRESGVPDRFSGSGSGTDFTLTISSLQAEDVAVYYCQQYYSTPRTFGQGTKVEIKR
notes: parent antibody
B4: AB005 (antibody, V domains shown)
VH: EVQLVQSGGGLVKPGGSLRLSCAASGFTFSSYAMHWVRQAPGKGLEWVAVISYDGSNKYYADSVKGRFTISRDNSKNTLYLQMNSLRAEDTAVYYCARFSGWPNNYYYYGMDVWGQGTTVTVSS
VL: DVVMTQSPLSLPVTPGEPASISCRSSQSLLHSNGFNYVDWYLQKPGQSPHLLIYFGSYRASGVPDRFSGSGSGTDFTLKISRVEAEDVGVYYCMQALQTPPWTFGQGTKVEIRR
notes: parent antibody; also called RON
B5: AB011 (antibody, V domains shown)
VH: EVQLLESGGGLVQPGGSLRLSCTASGFTFSSYAMNWVRQAPGKGLEWVSAISGSGGTTFYADSVKGRFTISRDNSRTTLYLQMNSLRAEDTAVYYCAKDLGWSDSYYYYYGMDVWGQGTTVTVSS
VL: DIQMTQFPSSLSASVGDRVTITCRASQGIRNDLGWYQQKPGKAPKRLIYAASRLHRGVPSRFSGSGSGTEFTLTISSLQPEDFATYYCLQHNSYPCSFGQGTKLEIKR
notes: parent antibody; also called IGF1R
B6: DVD341 (bispecific antibody)
VH: QVQLQESGPGLVKPSQTLSLTCTVSGYSISSDFAWNWIRQPPGKGLEWMGYISYSGNTRYQPSLKSRITISRDTSKNQFFLKLNSVTAADTATYYCVTAGRGFPYWGQGTLVTVSSASTKGPQVQLQQSGAELVKPGASVKISCKASGYTFTDYYINWVKLAPGQGLEWIGWIYPGSGNTKYNEKFKGKATLTIDTSSSTAYMQLSSLTSEDTAVYFCVRDSPFFDYWGQGTLLTVSS
VL: DIQMTQSPSSMSVSVGDRVTITCHSSQDINSNIGWLQQKPGKSFKGLIYHGTNLDDGVPSRFSGSGSGTDYTLTISSLQPEDFATYYCVQYAQFPWTFGGGTKLEIKRTVAAPDIVLTQSPDSLAVSLGERVTMNCKSSQSLLNSGMRKSFLAWYQQKPGQSPKLLIYWASTRESGVPDRFTGSGSGTDFTLTISSVQAEDVAVYYCKQSYHLFTFGSGTKLEIKR
notes: DVD-Ig; HC S, LC S; variable parts only
B7: DVD783 (bispecific antibody)
VH: QVQLQESGPGLVKPSQTLSLTCTVSGYSISSDFAWNWIRQPPGKGLEWMGYISYSGNTRYQPSLKSRITISRDTSKNQFFLKLNSVTAADTATYYCVTAGRGFPYWGQGTLVTVSSASTKGPSVFPLAPQVQLQQSGAELVKPGASVKISCKASGYTFTDYYINWVKLAPGQGLEWIGWIYPGSGNTKYNEKFKGKATLTIDTSSSTAYMQLSSLTSEDTAVYFCVRDSPFFDYWGQGTLLTVSS
VL: DIQMTQSPSSMSVSVGDRVTITCHSSQDINSNIGWLQQKPGKSFKGLIYHGTNLDDGVPSRFSGSGSGTDYTLTISSLQPEDFATYYCVQYAQFPWTFGGGTKLEIKRTVAAPSVFIFPPDIVLTQSPDSLAVSLGERVTMNCKSSQSLLNSGMRKSFLAWYQQKPGQSPKLLIYWASTRESGVPDRFTGSGSGTDFTLTISSVQAEDVAVYYCKQSYHLFTFGSGTKLEIKR
notes: DVD-Ig; HC L, LC L; variable parts only
B8: DVD813 (bispecific antibody)
VH: B7 VH
VL: B6 VL
notes: DVD-Ig; HC L, LC S; variable parts only
B9: DVD843 (bispecific antibody)
VH: B6 VH
VL: B7 VL
notes: DVD-Ig; HC S, LC L; variable parts only
B10: DVD842 (bispecific antibody)
VH: EVQLVESGGGLVQPGGSLRLSCAASGFTFTDNWISWVRQAPGKGLEWVGYISPNSGFTYYADSVKGRFTISADTSKNTAYLQMNSLRAEDTAVYYCARDNFGGYFDYWGQGTLVTVSSASTKGPQVQLQESGPGLVKPSQTLSLTCTVSGYSISSDFAWNWIRQPPGKGLEWMGYISYSGNTRYQPSLKSRITISRDTSKNQFFLKLNSVTAADTATYYCVTAGRGFPYWGQGTLVTVSS
VL: DIQMTQSPSSLSASVGDRVTITCRASQDVSTAVAWYQQKPGKAPKLLIYSASFLYSGVPSRFSGSGSGTDFTLTISSLQPEDFATTYYCQQSYTGTVTFGQGTKVEIKRTVAAPSVFIFPPDIQMTQSPSSMSVSVGDRVTITCHSSQDINSNIGWLQQKPGKSFKGLIYHGTNLDDGVPSRFSGSGSGTDYTLTISSLQPEDFATYYCVQYAQFPWTFGGGTKLEIKR
notes: as for B9
B11: DVD340 (bispecific antibody)
VH: B10 VH
VL: DIQMTQSPSSLSASVGDRVTITCRASQDVSTAVAWYQQKPGKAPKLLIYSASFLYSGVPSRFSGSGSGTDFTLTISSLQPEDFATTYYCQQSYTGTVTFGQGTKVEIKRTVAAPDIQMTQSPSSMSVSVGDRVTITCHSSQDINSNIGWLQQKPGKSFKGLIYHGTNLDDGVPSRFSGSGSGTDYTLTISSLQPEDFATYYCVQYAQFPWTFGGGTKLEIKR
notes: as for B6
B12: DVD342 (bispecific antibody)
VH: QVQLQQSGAELVKPGASVKISCKASGYTFTDYYINWVKLAPGQGLEWIGWIYPGSGNTKYNEKFKGKATLTIDTSSSTAYMQLSSLTSEDTAVYFCVRDSPFFDYWGQGTLLTVSSASTKGPQVQLQESGPGLVKPSQTLSLTCTVSGYSISSDFAWNWIRQPPGKGLEWMGYISYSGNTRYQPSLKSRITISRDTSKNQFFLKLNSVTAADTATYYCVTAGRGFPYWGQGTLVTVSS
VL: DIVLTQSPDSLAVSLGERVTMNCKSSQSLLNSGMRKSFLAWYQQKPGQSPKLLIYWASTRESGVPDRFTGSGSGTDFTLTISSVQAEDVAVYYCKQSYHLFTFGSGTKLEIKRTVAAPDIQMTQSPSSMSVSVGDRVTITCHSSQDINSNIGWLQQKPGKSFKGLIYHGTNLDDGVPSRFSGSGSGTDYTLTISSLQPEDFATYYCVQYAQFPWTFGGGTKLEIKR
notes: as for B6
B13: DVD784 (bispecific antibody)
VH: QVQLQQSGAELVKPGASVKISCKASGYTFTDYYINWVKLAPGQGLEWIGWIYPGSGNTKYNEKFKGKATLTIDTSSSTAYMQLSSLTSEDTAVYFCVRDSPFFDYWGQGTLLTVSSASTKGPSVFPLAPQVQLQESGPGLVKPSQTLSLTCTVSGYSISSDFAWNWIRQPPGKGLEWMGYISYSGNTRYQPSLKSRITISRDTSKNQFFLKLNSVTAADTATYYCVTAGRGFPYWGQGTLVTVSS
VL: DIVLTQSPDSLAVSLGERVTMNCKSSQSLLNSGMRKSFLAWYQQKPGQSPKLLIYWASTRESGVPDRFTGSGSGTDFTLTISSVQAEDVAVYYCKQSYHLFTFGSGTKLEIKRTVAAPSVFIFPPDIQMTQSPSSMSVSVGDRVTITCHSSQDINSNIGWLQQKPGKSFKGLIYHGTNLDDGVPSRFSGSGSGTDYTLTISSLQPEDFATYYCVQYAQFPWTFGGGTKLEIKR
notes: as for B7
B14: DVD814 (bispecific antibody)
VH: B13 VH
VL: B12 VL
notes: as for B8
B15: DVD844 (bispecific antibody)
VH: B12 VH
VL: B13 VL
notes: as for B9

These binders were tested against T2, ErbB3 (UniProt P21860 20-643, limits assumed, biotinylated) (assay: direct bind ELISA, ref Ab).
T2 construct: ELISA antigen

Row | EC50 | Binder
1 | 0.86 nM and 1.11 nM | B1
2 | 1.4 nM and 2.03 nM | B2
3 | 1.19 nM and 1.36 nM and 1.34 nM | B3

The binders below were run against RON (UniProt Q04912 25-571, biotinylated) (assay: direct bind ELISA, ref Ab).

Row | EC50 | Binder
4 | 0.19 nM and 0.24 nM | B4

What follows are binders tested against T3, IGF1R (UniProt P08069 31-932, limits assumed, biotinylated) (assay: direct bind ELISA, ref Ab).
T3 construct: ELISA antigen

Row | EC50 | Binder
5 | 0.24 nM and 0.26 nM | B5

Each binder was assayed against T4, EGFR (UniProt P00533 25-645, limits assumed, biotinylated) (assay: direct bind ELISA, N-term VD;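 further: antibody or DVD-Ig preparations bound to immobilized target antigen on ELISA plates, 1 h at room temperature, TMB detection read as absorbance at 450 nm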).
T4 construct: ELISA antigen; construct not described

Row | EC50 | Binder
6 | 3.41 nM | B6
7 | 3.88 nM | B7
8 | 3.41 nM | B8
9 | 3.65 nM | B9

These binders were tested against T5, DLL-4 (UniProt Q9NR61 27-524, limits assumed, biotinylated) (assay: direct bind ELISA, N-term VD;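 further: antibody or DVD-Ig preparations bound to immobilized target antigen on ELISA plates, 1 h at room temperature, TMB detection read as absorbance at 450 nm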).
T5 construct: ELISA antigen

Row | EC50 | Binder
10 | 0.36 nM | B10
11 | 0.32 nM | B11

What follows are binders tested against T1, PLGF (assay: direct bind ELISA, N-term VD;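 further: antibody or DVD-Ig preparations bound to immobilized target antigen on ELISA plates, 1 h at room temperature, TMB detection read as absorbance at 450 nm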).

Row | EC50 | Binder
12 | 0.2 nM | B12
13 | 0.26 nM | B13
14 | 0.23 nM | B14
15 | 0.23 nM | B15

Each binder was assayed against T4, EGFR (assay: direct bind ELISA, C-term VD;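 further: ELISA with antibody or DVD-Ig preparations applied to target antigen-coated plates for 1 h at room temperature, TMB colour development, absorbance read at 450 nm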).

Row | EC50 | Binder
16 | 51.7 nM | B10
17 | 189 nM | B11
18 | 120 nM | B12
19 | 41.4 nM | B13
20 | 50.4 nM | B14
21 | 45.5 nM | B15

Each binder was assayed against T1, PLGF (assay: direct bind ELISA, C-term VD;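 further: ELISA with antibody or DVD-Ig preparations applied to target antigen-coated plates for 1 h at room temperature, TMB colour development, absorbance read at 450 nm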).

Row | EC50 | Binder
22 | 0.74 nM | B6
23 | 0.36 nM | B7
24 | 0.44 nM | B8
25 | 0.37 nM | B9
